Test results as given in paper PMC3437384.

Tests used:
[1] = target: N-domain of cardiac troponin C with the L48Q mutation, cNTnC(L48Q) (UniProt P63316); test: NMR titration
[2] = target: cTnI switch peptide 147-163 (Homo sapiens) (UniProt P19429); test: NMR; conditions: cited from earlier work
[3] = target: cardiac troponin I (cTnI), rat wild type (rat) (UniProt P23693); test: ITC
cardiac troponin I (cTnI), rat wild type (rat), sequence (P23693 whole entry): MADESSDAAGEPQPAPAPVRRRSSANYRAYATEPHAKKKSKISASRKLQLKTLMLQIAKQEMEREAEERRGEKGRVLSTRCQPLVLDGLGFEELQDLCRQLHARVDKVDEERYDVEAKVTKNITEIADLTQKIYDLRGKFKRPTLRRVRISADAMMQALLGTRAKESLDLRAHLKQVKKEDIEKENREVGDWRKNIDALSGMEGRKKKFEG

“cTnI peptide corresponding to residues 147-163, cTnI_(147-163) switch peptide” showed a Kd [1] of 61 µM.

For “cNTnC N-terminal domain (from UniProt P63316)”, the Kd [2] is given as 150 µM.

“cardiac troponin C L48Q variant, cTnC(L48Q) (from UniProt Q4PP99 1-161) (natural protein)” showed a Kd [3] of 132 nM and a dH [3] of -22.1 kJ/mol.
